Data reported in patent US20230407373A1 (priority 2020, published 2023).
Like-named read-outs stand apart in the source and are kept apart here.

How the values were obtained:
SARS-CoV-2 gRNA = assay type: binding; details: […]; LC-MS/MS; Probe I sample (first 199 lines of Table 2)
[1] = tested on: SARS-CoV-2 gRNA and sgRNAs; assay type: binding; details: for target (unweighted spectral count in RNP capture): Probe II capture, LC-MS/MS LFQ; for background (unweighted spectral count in control): no-probe control pull-down, used as background for Probe II
gRNA of HCoV-OC43 = assay type: binding; details: for target (spectral count, OC43 Probe I RNP capture) / background (spectral count, no-probe control): type n_48_v: 48 hours post-infection; for target (spectral count, OC43 Probe I RNP capture): infected cells, unweighted spectral count; for background (spectral count, no-probe control): no-probe control on infected cells; for target (spectral count) / background (spectral count): type g_36_m, 36 hpi, Probe I; for target (spectral count): HCoV-OC43-infected HCT-8 cells; for background (spectral count): uninfected-probe control
HCoV-OC43 gRNA and sgRNA = assay type: binding; details: for target (unweighted spectral count, OC43 Probe II capture) / target (unweighted spectral count): tested against no-probe control; for target (unweighted spectral count, OC43 Probe II capture): FDR<10%; for target (unweighted spectral count): OC43 Probe II, infected cells; for target (unweighted spectral count, OC43 Probe II) / background (unweighted spectral count, no-probe control): type n_48_v, 48 hpi; for target (unweighted spectral count, OC43 Probe II): OC43 Probe II capture on infected cells; for background (unweighted spectral count, no-probe control): no-probe control on infected cells; for target (spectral count) / background (spectral count): type s_36_m, Probe II; for target (spectral count): HCoV-OC43-infected HCT-8 cells; for background (spectral count): uninfected-probe control
SARS-CoV-2 = assay type: cell-based; details: Calu-3 cells, 50 nM siRNA, RT-qPCR, relative to siNC

Row | Molecule | target (unweighted spectral count of the protein in the RNP capture) (SARS-CoV-2 gRNA) | target (unweighted spectral count in RNP capture) ([1]; […]) | background (unweighted spectral count in control) [1] | target (spectral count, OC43 Probe I RNP capture) (gRNA of HCoV-OC43) | background (spectral count, no-probe control) (gRNA of HCoV-OC43) | target (unweighted spectral count, OC43 Probe II capture) (HCoV-OC43 gRNA and sgRNA; 36 hpi, type n_36_v) | target (unweighted spectral count) (HCoV-OC43 gRNA and sgRNA; 12 hpi (type n_12_v)) | target (unweighted spectral count) (HCoV-OC43 gRNA and sgRNA; 24 hpi (type n_24_v)) | target (unweighted spectral count, OC43 Probe II) (HCoV-OC43 gRNA and sgRNA) | background (unweighted spectral count, no-probe control) (HCoV-OC43 gRNA and sgRNA) | target (spectral count) (HCoV-OC43 gRNA and sgRNA; 36 hpi) | background (spectral count) (HCoV-OC43 gRNA and sgRNA; 36 hpi) | target (spectral count) (gRNA of HCoV-OC43) | background (spectral count) (gRNA of HCoV-OC43) | change in viral RNA levels (gRNA, N sgRNA) after siRNA depletion (SARS-CoV-2) | target (unweighted spectral count of the protein in the RNP capture experiment) ([1]; […], LC-MS/MS label-free quantification, probe pool not given) | back-ground (unweighted spectral count of the protein in the control experiment) ([1]; protein background of the control (e.g. no-probe) experiment, […]) | target (unweighted spectral count, OC43 Probe II capture) (HCoV-OC43 gRNA and sgRNA; 24 hpi, type n_24_v)
1 | SSBP1 (protein, UniProt Q04837 17-148, looked up) Single-stranded DNA-binding …: ESETTTSLVLERSLNRVHLLGRVGQDPVLRQVEGKNPVTIFSLATNEMWRSGDSEVYQLGDVSQKTTWHRISVFRPGLRDVAYQYVKKGSRIYLEGKIDYGEYMDKNNVRRQATTIIADNIIFLSDQTKEKE | 14 | 7 | 1 | 16 | 3 | 12 | 44 | 25 | 14 | 3 |  |  |  |  |  |  |  | 
2 | SAFB: host protein, UniProt Q15424 (protein, UniProt Q15424 2-915, looked up) Scaffold attachment factor B1: AETLSGLGDSGAAGAAALSSASSETGTRRLSDLRVIDLRAELRKRNVDSSGNKSVLMERLKKAIEDEGGNPDEIEITSEGNKKTSKRSSKGRKPEEEGVEDNGLEENSGDGQEDVETSLENLQDIDIMDISVLDEAEIDNGSVADCVEDDDADNLQESLSDSRELVEGEMKELPEQLQEHAIEDKETINNLDTSSSDFTILQEIEEPSLEPENEKILDILGETCKSEPVKEESSELEQPFAQDTSSVGPDRKLAEEEDLFDSAHPEEGDLDLASESTAHAQSSKADSLLAVVKREPAEQPGDGERTDCEPVGLEPAVEQSSAASELAEASSEELAEAPTEAPSPEARDSKEDGRKFDFDACNEVPPAPKESSTSEGADQKMSSPEDDSDTKRLSKEEKGRSSCGRNFWVSGLSSTTRATDLKNLFSKYGKVVGAKVVTNARSPGARCYGFVTMSTAEEATKCINHLHKTELHGKMISVEKAKNEPVGKKTSDKRDSDGKKEKSSNSDRSTNLKRDDKCDRKDDAKKGDDGSGEKSKDQDDQKPGPSERSRATKSGSRGTERTVVMDKSKGVPVISVKTSGSKERASKSQDRKSASREKRSVVSFDKVKEPRKSRDSESHSRVRERSEREQRMQAQWEREERERLEIARERLAFQRQRLERERMERERLERERMHVEHERRREQERIHREREELRRQQELRYEQERRPAVRRPYDLDRRDDAYWPEAKRAALDERYHSDFNRQDRFHDFDHRDRGRYPDHSVDRREGSRSMMGEREGQHYPERHGGPERHGRDSRDGWGGYGSDKRMSEGRGLPPPPRRDWGDHGRREDDRSWQGTADGGMMDRDHKRWQGGERSMSGHSGPGHMMNRGGMSGRGSFAPGGASRGHPIPHGGMQGGFGGQSRGSRPSDARFTRRY | 20 | 11 | 1 | 11 | 1 | 7 |  |  | 9 | 1 | 7 | 1 |  |  |  |  |  | 
3 | HDLBP: host protein, UniProt Q00341 (protein, UniProt Q00341 2-1268, looked up) Vigilin: SSVAVLTQESFAEHRSGLVPQQIKVATLNSEEESDPPTYKDAFPPLPEKAACLESAQEPAGAWGNKIRPIKASVITQVFHVPLEERKYKDMNQFGEGEQAKICLEIMQRTGAHLELSLAKDQGLSIMVSGKLDAVMKARKDIVARLQTQASATVAIPKEHHRFVIGKNGEKLQDLELKTATKIQIPRPDDPSNQIKITGTKEGIEKARHEVLLISAEQDKRAVERLEVEKAFHPFIAGPYNRLVGEIMQETGTRINIPPPSVNRTEIVFTGEKEQLAQAVARIKKIYEEKKKKTTTIAVEVKKSQHKYVIGPKGNSLQEILERTGVSVEIPPSDSISETVILRGEPEKLGQALTEVYAKANSFTVSSVAAPSWLHRFIIGKKGQNLAKITQQMPKVHIEFTEGEDKITLEGPTEDVNVAQEQIEGMVKDLINRMDYVEINIDHKFHRHLIGKSGANINRIKDQYKVSVRIPPDSEKSNLIRIEGDPQGVQQAKRELLELASRMENERTKDLIIEQRFHRTIIGQKGERIREIRDKFPEVIINFPDPAQKSDIVQLRGPKNEVEKCTKYMQKMVADLVENSYSISVPIFKQFHKNIIGKGGANIKKIREESNTKIDLPAENSNSETIIITGKRANCEAARSRILSIQKDLANIAEVEVSIPAKLHNSLIGTKGRLIRSIMEECGGVHIHFPVEGSGSDTVVIRGPSSDVEKAKKQLLHLAEEKQTKSFTVDIRAKPEYHKFLIGKGGGKIRKVRDSTGARVIFPAAEDKDQDLITIIGKEDAVREAQKELEALIQNLDNVVEDSMLVDPKHHRHFVIRRGQVLREIAEEYGGVMVSFPRSGTQSDKVTLKGAKDCVEAAKKRIQEIIEDLEAQVTLECAIPQKFHRSVMGPKGSRIQQITRDFSVQIKFPDREENAVHSTEPVVQENGDEAGEGREAKDCDPGSPRRCDIIIISGRKEKCEAAKEALEALVPVTIEVEVPFDLHRYVIGQKGSGIRKMMDEFEVNIHVPAPELQSDIIAITGLAANLDRAKAGLLERVKELQAEQEDRALRSFKLSVTVDPKYHPKIIGRKGAVITQIRLEHDVNIQFPDKDDGNQPQDQITITGYEKNTEAARDAILRIVGELEQMVSEDVPLDHRVHARIIGARGKAIRKIMDEFKVDIRFPQSGAPDPNCVTVTGLPENVEEAIDHILNLEEEYLADVVDSEALQVYMKPPAHEEAKAPSRGFVVRDAPWTASSSEKAPDMSSSEEFPSFGAQVAPKTLPWGPKR | 23 |  |  | 16 | 2 |  | 11 | 24 | 50 | 2 | 36 | 1 | 26 | 3 | increased the viral RNA levels |  |  | 
4 | SF1: host protein, UniProt Q15637 (protein, UniProt Q15637 2-639, looked up) Splicing factor 1: ATGANATPLDFPSKKRKRSRWNQDTMEQKTVIPGMPTVIPPGLTREQERAYIVQLQIEDLTRKLRTGDLGIPPNPEDRSPSPEPIYNSEGKRLNTREFRTRKKLEEERHNLITEMVALNPDFKPPADYKPPATRVSDKVMIPQDEYPEINFVGLLIGPRGNTLKNIEKECNAKIMIRGKGSVKEGKVGRKDGQMLPGEDEPLHALVTANTMENVKKAVEQIRNILKQGIETPEDQNDLRKMQLRELARLNGTLREDDNRILRPWQSSETRSITNTTVCTKCGGAGHIASDCKFQRPGDPQSAQDKARMDKEYLSLMAELGEAPVPASVGSTSGPATTPLASAPRPAAPANNPPPPSLMSTTQSRPPWMNSGPSESRPYHGMHGGGPGGPGGGPHSFPHPLPSLTGGHGGHPMQHNPNGPPPPWMQPPPPPMNQGPHPPGHHGPPPMDQYLGSTPVGSGVYRLHQGKGMMPPPPMGMMPPPPPPPSGQPPPPPSGPLPPWQQQQQQPPPPPPPSSSMASSTPLPWQQNTTTTTTSAGTGSIPPWQQQQAAAAASPGAPQMQGNPTMVPLPPGVQPPLPPGAPPPPPPPPPGSAGMMYAPPPPPPPPMDPSNFVTMMGMGVAGMPPFGMPPAPPPPPPQN | 17 |  |  | 12 | 1 | 8 |  |  |  |  | 8 | 1 | 12 | 2 |  | 6 | 1 | 4
